Assay results from patent US20250002605A1 (WUHAN YZY BIOPHARMA, published 2025).

T1: human EpCAM on the cell surface (human, UniProt P16422 24-314)
T1 construct: whole, on cells; also called EpCAM of cells; HCT116 cells
T1 sequence (looked up): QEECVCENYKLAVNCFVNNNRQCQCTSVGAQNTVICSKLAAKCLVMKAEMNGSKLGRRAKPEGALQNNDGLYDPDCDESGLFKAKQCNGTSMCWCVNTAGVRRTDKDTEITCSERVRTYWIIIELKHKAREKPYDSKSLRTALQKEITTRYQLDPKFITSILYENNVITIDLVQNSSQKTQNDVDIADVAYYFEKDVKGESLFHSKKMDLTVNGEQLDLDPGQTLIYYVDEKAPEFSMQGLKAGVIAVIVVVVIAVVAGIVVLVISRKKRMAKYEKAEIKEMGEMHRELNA

T2: human EpCAM antigen (SB, Cat: 10694-H08H) (human, UniProt P16422 24-265)
T2 construct: Bought antigen immobilised on a CM5 chip
T2 sequence (looked up): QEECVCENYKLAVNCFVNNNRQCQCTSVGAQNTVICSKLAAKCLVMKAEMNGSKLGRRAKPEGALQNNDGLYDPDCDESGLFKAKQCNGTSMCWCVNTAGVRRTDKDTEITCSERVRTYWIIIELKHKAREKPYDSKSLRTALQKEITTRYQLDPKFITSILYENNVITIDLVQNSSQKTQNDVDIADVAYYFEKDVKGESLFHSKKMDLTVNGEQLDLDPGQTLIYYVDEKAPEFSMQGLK


Columns and labels:
[1] = target: T1, human EpCAM on the cell surface; assay: flow cytometry (FACS) on HCT116 cells, PE anti-human IgG Fc detection
[2] = target: human CD3 antigen (SB, Cat: CT038-H2508H) (human, UniProt P07766 23-126; P04234 22-105); assay: SPR (Biacore T200), antigen amine-coupled on CM5, antibody as analyte, 1:1 fit; D0 sample
[3] = target: T2, human EpCAM antigen (SB, Cat: …); assay: as above

| Binder | EC50 [1] | Kd [2] | Kd [3] |
| --- | --- | --- | --- |
| M700 monoclonal antibody (antibody, human IgG1, kappa, V domains shown, also called anti-EpCAM monoclonal antibody control) VH: VQLLEQSGAELVRPGTSVKISCKASGYAFTNYWLGWVKQRPGHGLEWIGDIFPGSGNIHYNEKFKGKATLTADKSSSTAYMQLSSLTFEDSAVYFCARLRNWDEPMDYWGQGTTVTVSS VL: ELVMTQSPSSLTVTAGEKVTMSCKSSQSLLNSGNQKNYLTWYQQKPGQPPKLLIYWASTRESGVPDRFTGSGSGTDFTLTISSVQAEDLAVYYCQNDYSYPLTFGAGTKLEIKR | 1.78 nM | – | – |
| M701C (bispecific antibody, human IgG1, kappa, YBODY format; also called bispecific antibody M701C) light: ELVMTQSPSSLTVTAGEKVTMSCKSSQSLLNSGNQKNYLTWYQQKPGQPPKLLIYWASTRESGVPDRFTGSGSGTDFTLTISSVQAEDLAVYYCQNDYSYPLTFGAGTKLEIKRTVAAPSVFIFPPSDEQLKSGTASVVCLLNNFYPREAKVQWKVDNALQSGNSQESVTEQDSKDSTYSLSSTLTLSKADYEKHKVYACEVTHQGLSSPVTKSFNRGEC heavy: EVQLLEQSGAELVRPGTSVKISCKASGYAFTNYWLGWVKQRPGHGLEWIGDIFPGSGNIHYNEKFKGKATLTADKSSSTAYMQLSSLTFEDSAVYFCARLRNWDEPMDYWGQGTTVTVSSASTKGPSVFPLAPSSKSTSGGTAALGCLVKDYFPEPVTVSWNSGALTSGVHTFPAVLQSSGLYSLSSVVTVPSSSLGTQTYICNVNHKPSNTKVDKKVEPKSCDKTHTCPPCPAPELLGGPSVFLFPPKPKDTLMISRTPEVTCVVVDVSHEDPEVKFNWYVDGVEVHNAKTKPREEQYNSTYRVVSVLTVLHQDWLNGKEYKCKVSNKALPAPIEKTISKAKGQPREPQVYTLPPSRDELTKNQVSLWCLVKGFYPSDIAVEWESNGQPENNYDTTPPVLDSDGSFFLYSDLTVDKSRWQQGNVFSCSVMHEALHNHYTQKSLSLSPGK EVQLVESGGGLVQPGGSLRLSCKASGYTFTRYTMHWVRQAPGKGLEWIGYINPSRGYTNYNQKVKDRFTISRDNSKNTAFLQMDSLRPEDTGVYFCARYYDDHYCLDYWGQGTPVTVSSGGGGSGGGGSGGGGSDIQMTQSPSSLSASVGDRVTITCSASSSVSYMNWYQQTPGKAPKRWIYDTSKLASGVPSRFSGSGSGTDYTFTISSLQPEDIATYYCQQWSSNPFTFGQGTKVEIKRGAAAEPKSCDKTHTCPPCPAPELLGGPSVFLFPPKPKDTLMISRTPEVTCVVVDVSHEDPEVKFNWYVDGVEVHNAKTKPREEQYNSTYRVVSVLTVLHQDWLNGKEYKCKVSNKALPAPIEKTISKAKGQPREPQVYTLPPSRDELTKNQVSLTCRVKGFYPSDIAVEWESNGQPENNYKTTPPVLKSDGSFFLASKLTVDKSRWQQGNVFSCSVMHEALHNHYTQKSLSLSPGK | – | 37.2 nM | 18.6 nM |
| M701E (bispecific antibody, YBODY format; also called bispecific antibody M701E) light: ELVMTQSPSSLTVTAGEKVTMSCKSSQSLLNSGNQKNYLTWYQQKPGQPPKLLIYWASTRESGVPDRFTGSGSGTDFTLTISSVQAEDLAVYYCQNDYSYPLTFGAGTKLEIKRTVAAPSVFIFPPSDEQLKSGTASVVCLLNNFYPREAKVQWKVDNALQSGNSQESVTEQDSKDSTYSLSSTLTLSKADYEKHKVYACEVTHQGLSSPVTKSFNRGEC heavy: EVQLLEQSGAELVRPGTSVKISCKASGYAFTNYWLGWVKQRPGHGLEWIGDIFPGSGNIHYNEKFKGKATLTADKSSSTAYMQLSSLTFEDSAVYFCARLRNWDEPMDYWGQGTTVTVSSASTKGPSVFPLAPSSKSTSGGTAALGCLVKDYFPEPVTVSWNSGALTSGVHTFPAVLQSSGLYSLSSVVTVPSSSLGTQTYICNVNHKPSNTKVDKKVEPKSCDKTHTCPPCPAPELLGGPSVFLFPPKPKDTLMISRTPEVTCVVVDVSHEDPEVKFNWYVDGVEVHNAKTKPREEQYNSTYRVVSVLTVLHQDWLNGKEYKCKVSNKALPAPIEKTISKAKGQPREPQVYTLPPSRDELTKNQVSLWCLVKGFYPSDIAVEWESNGQPENNYDTTPPVLDSDGSFFLYSDLTVDKSRWQQGNVFSCSVMHEALHNHYTQKSLSLSPGK not shown | – | – | 23.1 nM |
| M701D (bispecific antibody, human IgG1, kappa, YBODY format; also called bispecific antibody M701D) light: ELVMTQSPSSLTVTAGEKVTMSCKSSQSLLNSGNQKNYLTWYQQKPGQPPKLLIYWASTRESGVPDRFTGSGSGTDFTLTISSVQAEDLAVYYCQNDYSYPLTFGAGTKLEIKRTVAAPSVFIFPPSDEQLKSGTASVVCLLNNFYPREAKVQWKVDNALQSGNSQESVTEQDSKDSTYSLSSTLTLSKADYEKHKVYACEVTHQGLSSPVTKSFNRGEC heavy: EVQLLEQSGAELVRPGTSVKISCKASGYAFTNYWLGWVKQRPGHGLEWIGDIFPGSGNIHYNEKFKGKATLTADKSSSTAYMQLSSLTFEDSAVYFCARLRNWDEPMDYWGQGTTVTVSSASTKGPSVFPLAPSSKSTSGGTAALGCLVKDYFPEPVTVSWNSGALTSGVHTFPAVLQSSGLYSLSSVVTVPSSSLGTQTYICNVNHKPSNTKVDKKVEPKSCDKTHTCPPCPAPELLGGPSVFLFPPKPKDTLMISRTPEVTCVVVDVSHEDPEVKFNWYVDGVEVHNAKTKPREEQYNSTYRVVSVLTVLHQDWLNGKEYKCKVSNKALPAPIEKTISKAKGQPREPQVYTLPPSRDELTKNQVSLWCLVKGFYPSDIAVEWESNGQPENNYDTTPPVLDSDGSFFLYSDLTVDKSRWQQGNVFSCSVMHEALHNHYTQKSLSLSPGK EVQLLESGGGLVQPGGSLRLSCAASGFTFSSFPMAWVRQAPGKGLEWVSTISTSGGRTYYRDSVKGRFTISRDNSKNTLYLQMNSLRAEDTAVYYCAKFRQYSGGFDYWGQGTLVTVSSGGGGSGGGGSGGGGSDIQLTQPNSVSTSLGSTVKLSCTLSSGNIENNYVHWYQLYEGRSPTTMIYDDDKRPDGVPDRFSGSIDRSSNSAFLTIHNVAIEDEAIYFCHSYVSSFNVFGGGTKLTVLRQPGAAAEPKSCDKTHTCPPCPAPELLGGPSVFLFPPKPKDTLMISRTPEVTCVVVDVSHEDPEVKFNWYVDGVEVHNAKTKPREEQYNSTYRVVSVLTVLHQDWLNGKEYKCKVSNKALPAPIEKTISKAKGQPREPQVYTLPPSRDELTKNQVSLTCRVKGFYPSDIAVEWESNGQPENNYKTTPPVLKSDGSFFLASKLTVDKSRWQQGNVFSCSVMHEALHNHYTQKSLSLSPGK | – | – | 14.4 nM |
| M701F (bispecific antibody, human IgG1, kappa, YBODY format; also called bispecific antibody M701F) light: ELVMTQSPSSLTVTAGEKVTMSCKSSQSLLNSGNQKNYLTWYQQKPGQPPKLLIYWASTRESGVPDRFTGSGSGTDFTLTISSVQAEDLAVYYCQNDYSYPLTFGAGTKLEIKRTVAAPSVFIFPPSDEQLKSGTASVVCLLNNFYPREAKVQWKVDNALQSGNSQESVTEQDSKDSTYSLSSTLTLSKADYEKHKVYACEVTHQGLSSPVTKSFNRGEC heavy: EVQLLEQSGAELVRPGTSVKISCKASGYAFTNYWLGWVKQRPGHGLEWIGDIFPGSGNIHYNEKFKGKATLTADKSSSTAYMQLSSLTFEDSAVYFCARLRNWDEPMDYWGQGTTVTVSSASTKGPSVFPLAPSSKSTSGGTAALGCLVKDYFPEPVTVSWNSGALTSGVHTFPAVLQSSGLYSLSSVVTVPSSSLGTQTYICNVNHKPSNTKVDKKVEPKSCDKTHTCPPCPAPELLGGPSVFLFPPKPKDTLMISRTPEVTCVVVDVSHEDPEVKFNWYVDGVEVHNAKTKPREEQYNSTYRVVSVLTVLHQDWLNGKEYKCKVSNKALPAPIEKTISKAKGQPREPQVYTLPPSRDELTKNQVSLWCLVKGFYPSDIAVEWESNGQPENNYDTTPPVLDSDGSFFLYSDLTVDKSRWQQGNVFSCSVMHEALHNHYTQKSLSLSPGK QVQLVQSGAEVKKPGASVKVSCKASGYTFISYTMHWVRQAPGQGLEWMGYINPRSGYTHYNQKLKDKATLTADKSASTAYMELSSLRSEDTAVYYCARSAYYDYDGFAYWGQGTLVTVSSGGGGSGGGGSGGGGSDIQMTQSPSSLSASVGDRVTITCSASSSVSYMNWYQQKPGKAPKRLIYDTSKLASGVPSRFSGSGSGTDFTLTISSLQPEDFATYYCQQWSSNPPTFGGGTKVEIKRGAAAEPKSCDKTHTCPPCPAPELLGGPSVFLFPPKPKDTLMISRTPEVTCVVVDVSHEDPEVKFNWYVDGVEVHNAKTKPREEQYNSTYRVVSVLTVLHQDWLNGKEYKCKVSNKALPAPIEKTISKAKGQPREPQVYTLPPSRDELTKNQVSLTCRVKGFYPSDIAVEWESNGQPENNYKTTPPVLKSDGSFFLASKLTVDKSRWQQGNVFSCSVMHEALHNHYTQKSLSLSPGK | – | 61.3 nM | 17.9 nM |
